Data published in publication PMC11969024 (2025).

B1: peptide HD2 (from tick evasin EVA4) / CXCL14 (biotinylated, synthetic) (parent complex)
chain 1: EEDDYTAYAPLTCYFT
chain 2: SKCKCSRKGPKIRYSDVKKLEMKPKYPHCEEKMVIITTKSVSRYRGQEHCLHPKLQSTKRFIKWYNAWNEKRRVYEE

Variants of: B1

| Variant | enrichment |
| --- | --- |
| chain 1 EEDPYTAYAPLTCYFT [chain 1 D4P] | 1.82 log2 (difference from the parental peptide) |
| chain 1 EEDFYTAYAPLTCYFT [chain 1 D4F] | -0.493 log2 (difference from the parental peptide) |
| chain 1 EEDWYTAYAPLTCYFT [chain 1 D4W] | -5.85 log2 (difference from the parental peptide) |
| chain 1 EEDEYTAYAPLTCYFT [chain 1 D4E] | -4.2 log2 (difference from the parental peptide) |
| chain 1 EEDMYTAYAPLTCYFT [chain 1 D4M] | -6.89 log2 (difference from the parental peptide) |
| chain 1 EEDNYTAYAPLTCYFT [chain 1 D4N] | 1.31 log2 (difference from the parental peptide) |
| chain 1 EEDIYTAYAPLTCYFT [chain 1 D4I] | 0.635 log2 (difference from the parental peptide) |
| chain 1 EEDDYRAYAPLTCYFT [chain 1 T6R] | 3.99 log2 (difference from the parental peptide) |
| chain 1 EEDDYSAYAPLTCYFT [chain 1 T6S] | -0.144 log2 (difference from the parental peptide) |
| chain 1 EEDDYEAYAPLTCYFT [chain 1 T6E] | 2.79 log2 (difference from the parental peptide) |
| chain 1 EEDDYKAYAPLTCYFT [chain 1 T6K] | -5.43 log2 (difference from the parental peptide) |
| chain 1 EEDDYYAYAPLTCYFT [chain 1 T6Y] | 3.46 log2 (difference from the parental peptide) |
| chain 1 EEDDYIAYAPLTCYFT [chain 1 T6I] | 0.467 log2 (difference from the parental peptide) |
| chain 1 EEDDYGAYAPLTCYFT [chain 1 T6G] | 4.19 log2 (difference from the parental peptide) |
| chain 1 EEDDYDAYAPLTCYFT [chain 1 T6D] | 3.46 log2 (difference from the parental peptide) |
| chain 1 EEDDYFAYAPLTCYFT [chain 1 T6F] | 0.389 log2 (difference from the parental peptide) |
| chain 1 EEDDYQAYAPLTCYFT [chain 1 T6Q] | 0.84 log2 (difference from the parental peptide) |
| chain 1 EEDDYTAMAPLTCYFT [chain 1 Y8M] | 1.74 log2 (difference from the parental peptide) |
| chain 1 EEDDYTALAPLTCYFT [chain 1 Y8L] | 0.358 log2 (difference from the parental peptide) |
| chain 1 EEDDYTAIAPLTCYFT [chain 1 Y8I] | -6.06 log2 (difference from the parental peptide) |
| chain 1 EEDDYTANAPLTCYFT [chain 1 Y8N] | -4.8 log2 (difference from the parental peptide) |
| chain 1 EEDDYTAWAPLTCYFT [chain 1 Y8W] | 0.649 log2 (difference from the parental peptide) |
| chain 1 EEDDYTAPAPLTCYFT [chain 1 Y8P] | -6.13 log2 (difference from the parental peptide) |

| Variant | enrichment |
| --- | --- |
| chain 1 EEDDYTAYAPLTCYFG [chain 1 T16G] | 2.47 log2 (difference from the parental peptide) |
| chain 1 EEDDYTAYAPLTCYFN [chain 1 T16N] | -3.97 log2 (difference from the parental peptide) |
| chain 1 EEDDYTAYAPLTCYFQ [chain 1 T16Q] | -5.09 log2 (difference from the parental peptide) |
| chain 1 EEDDYTAYAPLTCYFL [chain 1 T16L] | 1.24 log2 (difference from the parental peptide) |
| chain 1 EEDDYTAYAPLTCYFW [chain 1 T16W] | 2.14 log2 (difference from the parental peptide) |
| chain 1 EEDDYTAYAPLTCYFC [chain 1 T16C] | 1.19 log2 (difference from the parental peptide) |
| chain 1 EEDDYTAYAPLTCYFH [chain 1 T16H] | 3.56 log2 (difference from the parental peptide) |
| chain 1 EEDDYTAYAPLTCYFI [chain 1 T16I] | 0.982 log2 (difference from the parental peptide) |
| chain 1 EEDDYTAYAPLTCYFA [chain 1 T16A] | -3.04 log2 (difference from the parental peptide) |
| chain 1 EEDDYTAYAPLTCYFS [chain 1 T16S] | -5.85 log2 (difference from the parental peptide) |
| chain 1 EEDDYTAYAPLTGYFT [chain 1 C13G] | -8.69 log2 (difference from the parental peptide) |
| chain 1 EEDDYTAYAPLTSYFT [chain 1 C13S] | -3.41 log2 (difference from the parental peptide) |
| chain 1 EEDDYTAYAPLTAYFT [chain 1 C13A] | -6.89 log2 (difference from the parental peptide) |
| chain 1 EEDDYTAYAPLTNYFT [chain 1 C13N] | -4.88 log2 (difference from the parental peptide) |
| chain 1 EEDDYTAYAPLTDYFT [chain 1 C13D] | -5.83 log2 (difference from the parental peptide) |
| chain 1 ETDDYTAYAPLTCYFT [chain 1 E2T] | -2.03 log2 (difference from the parental peptide) |
| chain 1 EVDDYTAYAPLTCYFT [chain 1 E2V] | -0.0348 log2 (difference from the parental peptide) |
| chain 1 ESDDYTAYAPLTCYFT [chain 1 E2S] | 0.196 log2 (difference from the parental peptide) |
| chain 1 EWDDYTAYAPLTCYFT [chain 1 E2W] | 0.435 log2 (difference from the parental peptide) |
| chain 1 EDDDYTAYAPLTCYFT [chain 1 E2D] | 0.377 log2 (difference from the parental peptide) |
| chain 1 EMDDYTAYAPLTCYFT [chain 1 E2M] | -6.07 log2 (difference from the parental peptide) |
| chain 1 EEDDYTAYAPLTCYQT [chain 1 F15Q] | 1.93 log2 (difference from the parental peptide) |
| chain 1 EEDDYTAYAPLTCYLT [chain 1 F15L] | -4.99 log2 (difference from the parental peptide) |

| Variant | enrichment |
| --- | --- |
| chain 1 EEDDYTAYAPLTCYMT [chain 1 F15M] | 0.3 log2 (difference from the parental peptide) |
| chain 1 EEDDYTAYAPLTCYNT [chain 1 F15N] | -3.99 log2 (difference from the parental peptide) |
| chain 1 EEDDYTAYAPLTCYAT [chain 1 F15A] | -5.37 log2 (difference from the parental peptide) |
| chain 1 EEDDYTAYAPLTCYRT [chain 1 F15R] | -5.53 log2 (difference from the parental peptide) |
| chain 1 EEDDYTAYAPLTCYGT [chain 1 F15G] | -8.03 log2 (difference from the parental peptide) |
| chain 1 EEDDYTAYAPLTCYWT [chain 1 F15W] | -6.44 log2 (difference from the parental peptide) |
| chain 1 EEDDYTAYAPLTCYCT [chain 1 F15C] | 1.14 log2 (difference from the parental peptide) |
| chain 1 EEDDYTAYAPQTCYFT [chain 1 L11Q] | -4.52 log2 (difference from the parental peptide) |
| chain 1 EEDDYTAYAPCTCYFT [chain 1 L11C] | 0.549 log2 (difference from the parental peptide) |
| chain 1 EEDDYTAYAPITCYFT [chain 1 L11I] | 0.571 log2 (difference from the parental peptide) |
| chain 1 EEDDYTAYAPHTCYFT [chain 1 L11H] | 3.17 log2 (difference from the parental peptide) |
| chain 1 EEDDYTAYAPRTCYFT [chain 1 L11R] | -4.9 log2 (difference from the parental peptide) |
| chain 1 EEDDYTAYAPFTCYFT [chain 1 L11F] | 1.48 log2 (difference from the parental peptide) |
| chain 1 EEDDYTAYAPNTCYFT [chain 1 L11N] | -0.349 log2 (difference from the parental peptide) |
| chain 1 EEDDYTAYAPVTCYFT [chain 1 L11V] | -0.136 log2 (difference from the parental peptide) |
| chain 1 EEDDYTAYAPDTCYFT [chain 1 L11D] | 0.52 log2 (difference from the parental peptide) |
| chain 1 EEPDYTAYAPLTCYFT [chain 1 D3P] | -5.77 log2 (difference from the parental peptide) |
| chain 1 EEGDYTAYAPLTCYFT [chain 1 D3G] | 1.82 log2 (difference from the parental peptide) |
| chain 1 EEIDYTAYAPLTCYFT [chain 1 D3I] | -8.12 log2 (difference from the parental peptide) |
| chain 1 EETDYTAYAPLTCYFT [chain 1 D3T] | -5.87 log2 (difference from the parental peptide) |
| chain 1 EEFDYTAYAPLTCYFT [chain 1 D3F] | -3.03 log2 (difference from the parental peptide) |
| chain 1 EEEDYTAYAPLTCYFT [chain 1 D3E] | -1.97 log2 (difference from the parental peptide) |
| chain 1 EEYDYTAYAPLTCYFT [chain 1 D3Y] | 0.926 log2 (difference from the parental peptide) |

| Variant | enrichment |
| --- | --- |
| chain 1 LEDDYTAYAPLTCYFT [chain 1 E1L] | 0.456 log2 (difference from the parental peptide) |
| chain 1 QEDDYTAYAPLTCYFT [chain 1 E1Q] | -2.86 log2 (difference from the parental peptide) |
| chain 1 TEDDYTAYAPLTCYFT [chain 1 E1T] | 0.267 log2 (difference from the parental peptide) |
| chain 1 YEDDYTAYAPLTCYFT [chain 1 E1Y] | 0.958 log2 (difference from the parental peptide) |
| chain 1 EEDDYTAYAPLTCEFT [chain 1 Y14E] | -0.269 log2 (difference from the parental peptide) |
| chain 1 EEDDYTAYAPLTCHFT [chain 1 Y14H] | 2.79 log2 (difference from the parental peptide) |
| chain 1 EEDDYTAYAPLTCWFT [chain 1 Y14W] | -6.55 log2 (difference from the parental peptide) |
| chain 1 EEDDYTAYAPLTCVFT [chain 1 Y14V] | -3.62 log2 (difference from the parental peptide) |
| chain 1 EEDDYTAYAPLTCCFT [chain 1 Y14C] | -4.99 log2 (difference from the parental peptide) |
| chain 1 EEDDYTAYVPLTCYFT [chain 1 A9V] | -2.17 log2 (difference from the parental peptide) |
| chain 1 EEDDYTAYSPLTCYFT [chain 1 A9S] | -1.59 log2 (difference from the parental peptide) |
| chain 1 EEDDYTAYQPLTCYFT [chain 1 A9Q] | 3.77 log2 (difference from the parental peptide) |
| chain 1 EEDDYTAYHPLTCYFT [chain 1 A9H] | -6.47 log2 (difference from the parental peptide) |
| chain 1 EEDDYTAYNPLTCYFT [chain 1 A9N] | 4.16 log2 (difference from the parental peptide) |
| chain 1 EEDDYTAYDPLTCYFT [chain 1 A9D] | -5.49 log2 (difference from the parental peptide) |
| chain 1 EEDDYTAYEPLTCYFT [chain 1 A9E] | -4.09 log2 (difference from the parental peptide) |
| chain 1 EEDDYTAYWPLTCYFT [chain 1 A9W] | 1.99 log2 (difference from the parental peptide) |
| chain 1 EEDDWTAYAPLTCYFT [chain 1 Y5W] | -1.34 log2 (difference from the parental peptide) |
| chain 1 EEDDFTAYAPLTCYFT [chain 1 Y5F] | -5.86 log2 (difference from the parental peptide) |
| chain 1 EEDDYTGYAPLTCYFT [chain 1 A7G] | 1.97 log2 (difference from the parental peptide) |
| chain 1 EEDDYTDYAPLTCYFT [chain 1 A7D] | 3.18 log2 (difference from the parental peptide) |
| chain 1 EEDDYTMYAPLTCYFT [chain 1 A7M] | -3.2 log2 (difference from the parental peptide) |
| chain 1 EEDDYTRYAPLTCYFT [chain 1 A7R] | 1.24 log2 (difference from the parental peptide) |

| Variant | enrichment |
| --- | --- |
| chain 1 EEDDYTTYAPLTCYFT [chain 1 A7T] | -5.45 log2 (difference from the parental peptide) |
| chain 1 EEDDYTSYAPLTCYFT [chain 1 A7S] | 1 log2 (difference from the parental peptide) |
| chain 1 EEDDYTNYAPLTCYFT [chain 1 A7N] | 2.93 log2 (difference from the parental peptide) |
| chain 1 EEDDYTIYAPLTCYFT [chain 1 A7I] | 0.79 log2 (difference from the parental peptide) |
| chain 1 EEDDYTQYAPLTCYFT [chain 1 A7Q] | -3.16 log2 (difference from the parental peptide) |
| chain 1 EEDDYTAYALLTCYFT [chain 1 P10L] | 0.0771 log2 (difference from the parental peptide) |
| chain 1 EEDDYTAYAALTCYFT [chain 1 P10A] | 2.1 log2 (difference from the parental peptide) |
| chain 1 EEDDYTAYAELTCYFT [chain 1 P10E] | 3.27 log2 (difference from the parental peptide) |
| chain 1 EEDDYTAYAVLTCYFT [chain 1 P10V] | 0.331 log2 (difference from the parental peptide) |
| chain 1 EEDDYTAYAHLTCYFT [chain 1 P10H] | 0.862 log2 (difference from the parental peptide) |
| chain 1 EEDDYTAYADLTCYFT [chain 1 P10D] | -1.54 log2 (difference from the parental peptide) |
| chain 1 EEDDYTAYAPLDCYFT [chain 1 T12D] | -6.91 log2 (difference from the parental peptide) |
| chain 1 EEDDYTAYAPLICYFT [chain 1 T12I] | 3.47 log2 (difference from the parental peptide) |
| chain 1 EEDDYTAYAPLRCYFT [chain 1 T12R] | -7.34 log2 (difference from the parental peptide) |
| chain 1 EEDDYTAYAPLHCYFT [chain 1 T12H] | -1.2 log2 (difference from the parental peptide) |
| chain 1 EEDDYTAYAPLACYFT [chain 1 T12A] | -6.47 log2 (difference from the parental peptide) |
| chain 1 EEDDYTAYAPLSCYFT [chain 1 T12S] | -7.83 log2 (difference from the parental peptide) |
| chain 1 EEDDYTAYAPLFCYFT [chain 1 T12F] | 2.31 log2 (difference from the parental peptide) |
| chain 1 EEDDYTAYAPLNCYFT [chain 1 T12N] | -6.02 log2 (difference from the parental peptide) |
| chain 1 EEDDYTAYAPLMCYFT [chain 1 T12M] | -4.31 log2 (difference from the parental peptide) |
